Measured values from paper PMC7000712, “A kinetic method for measuring agonist efficacy and ligand bias using high resolution biosensors and a kinetic data analysis framework” (Scientific Reports, 2020).
Each block holds one compound with its values, some of them ahead of it.

Tests used:
angiotensin AT1 receptor [1] = target: T1, angiotensin AT1 receptor (Homo sapiens, UniProt P30556); assay: Arrestin-3 (β-arrestin2) mNeonGreen biosensor recruitment, AT1 receptor, HEK 293 T cells (time course); type: cell-based
T1 construct: The unmodified receptor can be used, providing estimates of authentic rather than forced coupling to arrestin; host or cells: HEK 293 T cells, BacMam transduction, CMV promoter
T1 sequence (P30556 1-359): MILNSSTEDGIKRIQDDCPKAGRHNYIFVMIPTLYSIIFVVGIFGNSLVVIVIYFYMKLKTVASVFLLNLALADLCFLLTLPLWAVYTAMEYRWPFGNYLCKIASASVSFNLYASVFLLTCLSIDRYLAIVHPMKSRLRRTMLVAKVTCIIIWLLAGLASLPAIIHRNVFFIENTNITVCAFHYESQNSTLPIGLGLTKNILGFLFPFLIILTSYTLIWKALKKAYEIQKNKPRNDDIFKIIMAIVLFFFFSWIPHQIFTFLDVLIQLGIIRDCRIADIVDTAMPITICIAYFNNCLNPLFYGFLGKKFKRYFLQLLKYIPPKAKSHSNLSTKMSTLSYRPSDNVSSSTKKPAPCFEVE
Text: We and others have developed fluorescent biosensors in which intrinsically fluorescent protein sensors have been incorporated. (Three examples used in this study are R-GECO[22] for Ca^2+, Downward DAG for DAG and cADDis for cAMP[21]). The protein sensors have been engineered to be conformationally-sensitive, such that interaction with the signaling molecule of interest changes the optical properties, enabling the interaction to be detected as a change of fluorescence intensity. Since the proteins are intrinsically fluorescent, no chemical tagging or substrate addition is necessary to generate the optical signal. Here this approach was used to develop a biosensor of receptor-arrestin interaction (Fig. 1a).
We used the kτ method to quantify the kinetics of arrestin recruitment of five AT1 receptor ligands with known varying degrees of arrestin recruitment and bias. The method for quantifying kτ is as follows (illustrated schematically in Supplementary Fig. S5). […] From these fits the fitted parameter values were taken for Plateau and kobs. These values were then multiplied together. […] The data were then fit to the sigmoid curve equation, for example the “log(agonist) vs. response–Variable slope” equation in Prism[46]. From this fit kτ was obtained - it is the value of the asymptote. More precisely, kτ is the Plateau x kobs value for a maximally-effective concentration of ligand.
All that is required is a time course of response measurement at a single, maximally-stimulating concentration of ligand (maximally-stimulating at all time points). […] The data were fit to the association exponential equation to determine Plateau and kobs. kτ was then calculated - it is the Plateau multiplied by kobs for a maximally-stimulating concentration of ligand, as explained in the Appendix.
The first biosensors that positioned analyte binding domains in this position used a circularly permuted version of the fluorescent protein, and include the GCaMP and GECO Ca^2+ sensors, the upward and downward DAG sensors, and the caDDis cAMP sensor[21],[22]. More recently it has become clearer that if the termini of the analyte binding domain are close to one another, then the entire binding domain can be inserted into the 7th stave of the fluorescent protein without having to circularly permute the fluorescent protein[60].
HEK 293 T cells were cultured in Eagle’s minimum essential media (EMEM) supplemented with 10% fetal bovine serum (FBS) and penicillin-streptomycin at 37 °C in 5% CO2. For BacMam transduction, cells were resuspended in media at a density of 52,000 cells per 100 μL. […] For each experiment 4.24 × 10^8 viral genes of arrestin virus were added to each well. For multiplex experiments, 4.79 × 10^8 viral genes of the Red DAG sensor or 6.18 × 10^8. Viral genes of the Red cADDis (cAMP) sensor were added with the arrestin sensor. For experiments with the R-GECO sensor, 8.46 × 10^8 viral genes were added to each well. The viruses carrying the AT1 and V2 receptors were added such that 2.12 × 10^8 and 3.04 × 10^8 viral genes went into each well, respectively. For the β2-adrenoceptor experiment, 4.28 × 10^8 viral genes for the receptor and 2.13 × 10^8 viral genes of GPCR kinase 2 were added to each well.

angiotensin AT1 receptor [2] = target: T1, angiotensin AT1 receptor; assay: Ca^2+ mobilization, R-GECO sensor, AT1 receptor, HEK 293 T cells; type: cell-based; conditions: 32 μM; mean kτ of ligand divided by that for AngII
Text: Biased agonism quantification relates the capacity of a ligand to activate one pathway relative to one or more other pathways[9]–[12]. Numerous methods and scales have been developed and successfully applied[8],[47],[53]–[59]. One approach is to compare ligand efficacy, i.e. the capacity of the agonist-occupied receptor to generate the signal. kτ provides such an efficacy value, being the initial rate of signal generation by the agonist-occupied receptor. Here kτ is used to assess signaling bias of the AT1 receptor ligands described above. […] In this study, G-protein signaling and arrestin recruitment was measured using the same fluorescent biosensor assay modality, enabling near-identical conditions to be employed in comparing the pathways. The Gq pathway was quantified at the level of diacylglycerol using the Red Downward DAG sensor[21] (Fig. 5b), and, one step downstream, Ca^2+ mobilization measured using the R-GECO sensor[22] […]
HEK 293 T cells were cultured in Eagle’s minimum essential media (EMEM) supplemented with 10% fetal bovine serum (FBS) and penicillin-streptomycin at 37 °C in 5% CO2. […] Thirty minutes prior to fluorescence plate reader or imaging experiments, the media in each well was replaced with 150 μL of Dulbecco’s phosphate buffered saline (DPBS) supplemented with Ca^2+ (0.9 mM) and Mg^2+ (0.5 mM). […]

β2-adrenoceptor = assay: Arrestin sensor response via the β2-adrenoceptor; type: cell-based; conditions: 10 μM isoproterenol; cells also transduced with GPCR kinase 2; n = 4; Biotek Synergy Mx
Procedure: HEK 293 T cells were cultured in Eagle’s minimum essential media (EMEM) supplemented with 10% fetal bovine serum (FBS) and penicillin-streptomycin at 37 °C in 5% CO2. For BacMam transduction, cells were resuspended in media at a density of 52,000 cells per 100 μL. […] For each experiment 4.24 × 10^8 viral genes of arrestin virus were added to each well. For multiplex experiments, 4.79 × 10^8 viral genes of the Red DAG sensor or 6.18 × 10^8. Viral genes of the Red cADDis (cAMP) sensor were added with the arrestin sensor. For experiments with the R-GECO sensor, 8.46 × 10^8 viral genes were added to each well. The viruses carrying the AT1 and V2 receptors were added such that 2.12 × 10^8 and 3.04 × 10^8 viral genes went into each well, respectively. For the β2-adrenoceptor experiment, 4.28 × 10^8 viral genes for the receptor and 2.13 × 10^8 viral genes of GPCR kinase 2 were added to each well. The cell/transduction mixture was then seeded into 96-well plates and incubated for ~24 hours at 37 °C in 5% CO2. Thirty minutes prior to fluorescence plate reader or imaging experiments, the media in each well was replaced with 150 μL of Dulbecco’s phosphate buffered saline (DPBS) supplemented with Ca^2+ (0.9 mM) and Mg^2+ (0.5 mM).
Fluorescence plate reader experiments were performed on the BioTek Synergy Mx (BioTek, Winooski, VT) and BMG CLARIOstar (BMG Labtech, Cary, NC) in 96 well plates.

angiotensin AT1 receptor [3] = target: angiotensin AT1 receptor (UniProt P30556)
angiotensin AT1 receptor [4] = target: angiotensin AT1 receptor (UniProt P30556); assay: conformation-sensitive fluorescent arrestin biosensor in live cells; as a6, 32 μM TRV120055
angiotensin AT1 receptor [5] = target: angiotensin AT1 receptor (UniProt P30556); assay: conformation-sensitive fluorescent arrestin biosensor in live cells; HEK 293 T cells with sensor and AT1 receptor; AngII 10 nM-32 μM; time courses fit to the association exponential, Plateau x kobs against concentration fit to a sigmoid, kτ is its top; DPBS with Ca2+ and Mg2+; Biotek Synergy Mx
angiotensin AT1 receptor [6] = target: angiotensin AT1 receptor (UniProt P30556); assay: conformation-sensitive fluorescent arrestin biosensor in live cells; as a6, 32 μM TRV120045
angiotensin AT1 receptor [7] = target: angiotensin AT1 receptor (UniProt P30556); assay: conformation-sensitive fluorescent arrestin biosensor in live cells; as a1, concentration-response with the agonist TRV055 (TRV120055)
angiotensin AT1 receptor [8] = target: angiotensin AT1 receptor (UniProt P30556); assay: conformation-sensitive fluorescent arrestin biosensor in live cells; as a6, 32 μM TRV120026
angiotensin AT1 receptor [9] = target: angiotensin AT1 receptor (UniProt P30556); assay: conformation-sensitive fluorescent arrestin biosensor in live cells; as a1, concentration-response with the agonist TRV026 (TRV120026)
angiotensin AT1 receptor [10] = target: angiotensin AT1 receptor (UniProt P30556); assay: conformation-sensitive fluorescent arrestin biosensor in live cells; HEK 293 T cells with sensor and AT1 receptor; single maximally-stimulating concentration, 32 μM AngII; time course fit to the association exponential, kτ = Plateau x kobs; ΔF/F normalised to baseline; Biotek Synergy Mx (Fig. 5a) or BMG CLARIOstar (Fig. 1b)
angiotensin AT1 receptor [11] = target: angiotensin AT1 receptor (UniProt P30556); assay: conformation-sensitive fluorescent arrestin biosensor in live cells; as a1, concentration-response with the agonist SII
angiotensin AT1 receptor [12] = target: angiotensin AT1 receptor (UniProt P30556); assay: conformation-sensitive fluorescent arrestin biosensor in live cells; as a1, concentration-response with the agonist TRV045 (TRV120045)
angiotensin AT1 receptor [13] = target: angiotensin AT1 receptor (UniProt P30556); assay: conformation-sensitive fluorescent arrestin biosensor in live cells; as a6, 32 μM SII
[14] = system: parathyroid hormone 1 (PTH1) receptor; conditions: endosomal compartment; cited from earlier work
Text: The kinetics/dynamics of G-protein-coupled receptor (GPCR) signaling is of increasing interest in elaborating the biology and therapeutic potential of these receptors[1]–[3]. The time frame of GPCR signal transduction is dependent on the signaling pathway, regulation of signaling mechanism, and location of the receptor in the cell (spatiotemporal signaling). Temporal dynamics of signaling are being elucidated and applied to develop new therapeutics. For example, the parathyroid hormone 1 (PTH1) receptor can signal persistently over time after partitioning into the endosomal compartment. Thi ...

Compound: CC(C)NCC(O)c1ccc(O)c(O)c1 (stereo not shown) [isoproterenol]
ΔF/F, β2-adrenoceptor (β2-adrenoceptor): 0.84

Compound: parathyroid hormone [PTH]
persistent signaling (in words) [14]: persistent signaling

The next lines start with the values.

kτ (% AngII), arrestin (single concentration) (angiotensin AT1 receptor [1]; 32 μM, mean kτ of ligand divided by that for AngII): 49 % AngII
Emax, 1 minute time point (angiotensin AT1 receptor [1]; 1 min (rise phase), sigmoid fit, representative experiments): 64 % Ang II
Emax, 20 minute time point (angiotensin AT1 receptor [1]; 20 min (plateau), sigmoid fit, representative experiments): 88 % Ang II
EC50 (angiotensin AT1 receptor [1]; EC50, 1 minute time point, 1 min (rise phase), sigmoid fit, representative experiments): 620 nM
EC50 (angiotensin AT1 receptor [1]; EC50, 20 minute time point, 20 min (plateau), sigmoid fit, representative experiments): 210 nM
Kd (angiotensin AT1 receptor [1]; calculated from the mean pKA value, L50 of Plateau × kobs vs concentration curve, read-out: KA): 1100 nM
kτ (% AngII), arrestin (concentration-response) (angiotensin AT1 receptor [1]; concentration-response method, mean kτ of ligand divided by that for AngII): 48 % AngII
Emax, kinetic model initial rate (angiotensin AT1 receptor [1]; concentration-response of the initial rate, repeated from Table 1 in Supplementary Table S2): 48 % Ang II
kτ (% AngII), calcium (angiotensin AT1 receptor [2]): 12 % AngII
Compound: CC[C@H](C)[C@H](NC(=O)[C@@H]1CCCN1C(=O)[C@H](Cc1c[nH]cn1)NC(=O)[C@@H](NC(=O)[C@@H](NC(=O)[C@@H](NC(=O)[C@H](CCCNC(=N)N)NC(=O)CNC)C(C)C)[C@@H](C)CC)[C@@H](C)CC)C(=O)O [SII, [sarcosine^1, Ile^4, Ile^8]AngII]

KA from the operational model fit of the arrestin sensor concentration-response at the single time point 1 min (angiotensin AT1 receptor [3]): 1200 nM
KA from the operational model fit of the arrestin sensor concentration-response at the single time point 20 min (angiotensin AT1 receptor [3]): 530 nM
Compound: [sarcosine^1, Ile^4, Ile^8]AngII (peptide)

kτ (initial rate of arrestin recruitment) with 32 μM TRV120055 (angiotensin AT1 receptor [4]): 0.37 NFU.min^-1
kτ (initial rate of arrestin recruitment) with AngII (angiotensin AT1 receptor [5]): 0.41 NFU.min^-1
kτ (initial rate of arrestin recruitment) with 32 μM TRV120045 (angiotensin AT1 receptor [6]): 0.38 NFU.min^-1
kτ (initial rate of arrestin recruitment) with TRV055 (angiotensin AT1 receptor [7]): 0.38 NFU.min^-1
kτ (initial rate of arrestin recruitment) with 32 μM TRV120026 (angiotensin AT1 receptor [8]): 0.25 NFU.min^-1
kτ (initial rate of arrestin recruitment) with TRV026 (angiotensin AT1 receptor [9]): 0.25 NFU.min^-1
kτ (initial rate of arrestin recruitment) with 32 μM AngII (angiotensin AT1 receptor [10]): 0.4 NFU.min^-1
t1/2 of arrestin recruitment (0.693/kobs) with 32 μM AngII (angiotensin AT1 receptor [10]): 45 s
ΔF/F (fluorescence after agonist divided by baseline) with 32 µM AngII (angiotensin AT1 receptor [10]): 0.56
kτ (initial rate of arrestin recruitment) with SII (angiotensin AT1 receptor [11]): 0.2 NFU.min^-1
kτ (initial rate of arrestin recruitment) with TRV045 (angiotensin AT1 receptor [12]): 0.36 NFU.min^-1
kτ (initial rate of arrestin recruitment) with 32 μM SII (angiotensin AT1 receptor [13]): 0.2 NFU.min^-1
Compound: arrestin-3 (β-arrestin2) fluorescent biosensor incorporating mNeonGreen (from UniProt P32121 1-409)
